Source: IntAct's records for PubMed 31515488

B1: Cyclin-H (Homo sapiens), P51946 (parent)
chain: MYHNSSQKRHWTFSSEEQLARLRADANRKFRCKAVANGKVLPNDPVFLEPHEEMTLCKYYEKRLLEFCSVFKPAMPRSVVGTACMYFKRFYLNNSVMEYHPRIIMLTCAFLACKVDEFNVSSPQFVGNLRESPLGQEKALEQILEYELLLIQQLNFHLIVHNPYRPFEGFLIDLKTRYPILENPEILRKTADDFLNRIALTDAYLLYTPSQIALTAILSSASRAGITMESYLSESLMLKENRTCLSQLLDIMKSMRNLVKKYEPPRSEEVAVLKQKLERCHSAELALNVITKKRKGYEDDDYVSKKSKHEEEEWTDDDLVESL
partner: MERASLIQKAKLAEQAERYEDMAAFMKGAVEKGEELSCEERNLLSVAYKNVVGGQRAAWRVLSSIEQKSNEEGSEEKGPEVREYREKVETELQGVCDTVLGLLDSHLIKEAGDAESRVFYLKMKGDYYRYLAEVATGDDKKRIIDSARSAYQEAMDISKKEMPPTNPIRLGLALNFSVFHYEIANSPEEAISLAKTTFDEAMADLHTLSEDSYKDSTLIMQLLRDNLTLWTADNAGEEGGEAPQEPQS
B2: Syntenin-2 (Homo sapiens), Q9H190 (parent)
chain: MSSLYPSLEDLKVDQAIQAQVRASPKMPALPVQATAISPPPVLYPNLAELENYMGLSLSSQEVQESLLQIPEGDSTAVSGPGPGQMVAPVTGYSLGVRRAEIKPGVREIHLCKDERGKTGLRLRKVDQGLFVQLVQANTPASLVGLRFGDQLLQIDGRDCAGWSSHKAHQVVKKASGDKIVVVVRDRPFQRTVTMHKDSMGHVGFVIKKGKIVSLVKGSSAARNGLLTNHYVCEVDGQNVIGLKDKKIMEILATAGNVVTLTIIPSVIYEHMVKKLPPVLLHHTMDHSIPDA
partner: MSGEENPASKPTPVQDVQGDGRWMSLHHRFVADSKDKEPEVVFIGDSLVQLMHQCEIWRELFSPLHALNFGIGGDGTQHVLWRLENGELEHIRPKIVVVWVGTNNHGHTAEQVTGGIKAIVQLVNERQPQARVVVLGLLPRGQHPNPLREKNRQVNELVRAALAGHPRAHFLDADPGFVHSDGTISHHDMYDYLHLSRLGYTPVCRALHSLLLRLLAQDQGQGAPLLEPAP
B3: Ras association domain-containing protein 7 (Homo sapiens), Q02833 (parent)
chain: MLLGLAAMELKVWVDGIQRVVCGVSEQTTCQEVVIALAQAIGQTGRFVLVQRLREKERQLLPQECPVGAQATCGQFASDVQFVLRRTGPSLAGRPSSDSCPPPERCLIRASLPVKPRAALGCEPRKTLTPEPAPSLSRPGPAAPVTPTPGCCTDLRGLELRVQRNAEELGHEAFWEQELRREQAREREGQARLQALSAATAEHAARLQALDAQARALEAELQLAAEAPGPPSPMASATERLHQDLAVQERQSAEVQGSLALVSRALEAAERALQAQAQELEELNRELRQCNLQQFIQQTGAALPPPPRPDRGPPGTQGPLPPAREESLLGAPSESHAGAQPRPRGGPHDAELLEVAAAPAPEWCPLAAQPQAL

Variants of: B1
Conditions: with 1433s_human SFN

Row | Variant | effect of a mutation on the interaction
1 | MYHNSSQKRHWTFSSEEQLARLRADANRKFRCKAVANGKVLPNDPVFLEPHEEMTLCKYYEKRLLEFCSVFKPAMPRSVVGTACMYFKRFYLNNSVMEYHPRIIMLTCAFLACKVDEFNVSSPQFVGNLRESPLGQEKALEQILEYELLLIQQLTFHLIVHNPYRPFEGFLIDLKTRYPILENPEILRKTADDFLNRIALTDAYLLYTPSQIALTAILSSASRAGITMESYLSESLMLKENRTCLSQLLDIMKSMRNLVKKYEPPRSEEVAVLKQKLERCHSAELALNVITKKRKGYEDDDYVSKKSKHEEEEWTDDDLVESL [N155T] | with no effect

Variants of: B2
Conditions: with pa1b3_human PAFAH1B3, Q15102

Row | Variant | effect of a mutation on the interaction
2 | MSSLYPSLEDLKVDQAIQAQVRASPKMPALPVQATAISPPPVLYPNLAELENYMGLSLSSQEVQESLLQIPEGDSTAVSGPGPGQMVAPVTGYSLGVRRAEIKPGVREIHLCKDERGKTGLRLRKVDQGLFVQLVQANTPASLVGLRFGDQLLQIDGRDCAGWSSHKAHQVVKKASGDKIVVVVRDRPFQRTVTMHKDSMGHVGFVIKKGKIVSLVKGSSAARNGLLTNHYVCEVDGQNVIRLKDKKIMEILATAGNVVTLTIIPSVIYEHMVKKLPPVLLHHTMDHSIPDA [G242R] | with no effect
3 | MSSLYPSLEDLKVDQAIQAQVRASPKMPALPVQATAISPPPVLYPNLAELENYMGLSLSSQEVQESLLQIPEGDSTAVSGPGPGQMVAPVTGYSLGVRRAEIKPGVREIHLCKDERGKTGLRLRKVDQGLFVQLVQANTPASLVGLRFGDQLLQIDGRDCAGWSSHKAHQVVKKASGDKIVMVVRDRPFQRTVTMHKDSMGHVGFVIKKGKIVSLVKGSSAARNGLLTNHYVCEVDGQNVIGLKDKKIMEILATAGNVVTLTIIPSVIYEHMVKKLPPVLLHHTMDHSIPDA [V182M] | with no effect
4 | MSSLYPSLEDLKVDQAIQAQVRASPKMPALPVQATAISPPPVLYPNLAELENYMGLSLSSQEVQESLLQIPEGDSTAVSGPGPGQMVAPVTGYSLGVRRAEIKPGVREIHLCKDERGKTGLRLRKVDQGLFVQLVQANTPASLVGLRFGDQLLQIDGRDCAGWSSHKAHQVVKKASGDKIVVVVRDRPFQRTVTMHKDSMGHVGFVIKKGKIVSLVKGSSAARNRLLTNHYVCEVDGQNVIGLKDKKIMEILATAGNVVTLTIIPSVIYEHMVKKLPPVLLHHTMDHSIPDA [G225R] | with no effect

Variants of: B3
Conditions: with nck2_human NCK2, O43639
Chain of nck2_human NCK2, O43639 (O43639 whole entry): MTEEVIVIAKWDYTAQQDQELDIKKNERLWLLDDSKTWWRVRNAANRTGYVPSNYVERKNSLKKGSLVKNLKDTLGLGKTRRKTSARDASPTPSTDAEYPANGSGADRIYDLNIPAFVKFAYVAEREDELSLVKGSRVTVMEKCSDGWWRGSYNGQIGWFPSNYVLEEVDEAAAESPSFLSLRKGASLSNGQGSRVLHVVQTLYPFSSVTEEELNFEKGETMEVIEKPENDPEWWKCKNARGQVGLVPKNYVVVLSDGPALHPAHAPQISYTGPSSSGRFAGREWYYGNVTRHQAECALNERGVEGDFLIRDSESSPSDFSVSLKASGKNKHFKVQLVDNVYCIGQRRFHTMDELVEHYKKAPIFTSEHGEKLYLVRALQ

Row | Variant | effect of a mutation on the interaction
5 | MLLGLAAMELKVWVDGIQRVVCGVSEQTTCQEVVIALAQAIGQTGRFVLVQRLREKERQLLPQECPVGAQATCGQFASDVQFVLRRTGPSLAGRPSSDSCPPPERCLIRASLPVKPRAALGCEPRKTLTPEPAPSLSRPGPAAPVTPTPGCCTDLQGLELRVQRNAEELGHEAFWEQELRREQAREREGQARLQALSAATAEHAARLQALDAQARALEAELQLAAEAPGPPSPMASATERLHQDLAVQERQSAEVQGSLALVSRALEAAERALQAQAQELEELNRELRQCNLQQFIQQTGAALPPPPRPDRGPPGTQGPLPPAREESLLGAPSESHAGAQPRPRGGPHDAELLEVAAAPAPEWCPLAAQPQAL [R156Q] | with no effect
